Our source for the IC50, TF-dependent clotting assay (Assay 7), IC50, inhibition of FXa generation (Assay 5; 10 pM lipidated TF, 100 pM FVIIa, 50 nM FX) and IC50, inhibition of FVIIa/sTF amidolytic activity (Assay 4; 10 nM sTF, 10 nM FVIIa, substrate S2288) values is patent publication US20040001830A1.

Assay in all cases: cell-based or functional assay
In assay [1] the target is Thromboplastin from human (TF source of the TF-dependent clotting assay) (human) (UniProt P13726).
Another assay concerns the target Lipidated TF (human) (UniProt P13726).
The target of assay [2] is Recombinant human soluble TF1-209 (human) (UniProt P13726).

Regarding “FFR-rFVIIa: FVIIa blocked in the active site with D-Phe-L-Phe-L-Arg-chloromethyl ketone (from UniProt P08709 61-212) (enzyme)”, the IC50, TF-dependent clotting assay (Assay 7) in assay [1] came out at 0.0044 nM. Further, the IC50, inhibition of FXa generation (Assay 5; 10 pM lipidated TF, 100 pM FVIIa, 50 nM FX) with Lipidated TF (human) was determined as 51 pM. Besides, in assay [2], the IC50, inhibition of FVIIa/sTF amidolytic activity (Assay 4; 10 nM sTF, 10 nM FVIIa, substrate S2288) is 7 nM.
